Experimental data from patent US20070286858A1 (Pfizer, published 2007).

Molecular target: T1, human RAGE-Fc fusion protein (human, UniProt Q15109 23-344)
T1 construct: also called hRAGE-Fc; huRAGE-Fc; not shown: Fc domain of human IgG
Assay: ligand competition ELISA, panel Blocks hRAGE-Fc interaction with S100-B; blocked ligand S100-B

B1: XT-M4 (antibody, rat IgG2b, V domains shown)
VH: EVQLVESGGGLVQPGRSLKLSCVVSGFTFNNYWMTWIRQTPGKGLEWVASINNSGDNTYYPDSVKDRFTISRDNAKSTLYLQMNSLRSEDTATYYCTRGGDITTGFDYWGQGVMVTVSS
VL: DIQMTQSPSSMSVSLGDTITITCRASQDVGIYVNWFQQKPGKSPRRMIYRATNLADGVPSRFSGSRSGSIYSLTISSLESEDVADYHCLEFDEHPLTFGSGTKVEIK
notes: also called 1mRAGEP3/10; rat XT-M4
- IC50 (read off the curve): ~0.1 µg/mL
